The values that follow come from US9176064B2, “Bisubstrate fluorescent probes for protein kinase CK2” (University of Tartu, priority 2012, dated 2015).

Where a SMILES comes first, the peptide text is derived from it. [ ]: non-standard residue; d: D form. The star is where a group is joined. X1 = O=C(CCCCCCCn1cnc2c(Br)c(Br)c(Br)c(Br)c21)*

Among the targets are ROCK 2 (Homo sapiens, UniProt O75116); MST4 (Homo sapiens, UniProt Q9P289); IGF-1R (Homo sapiens, UniProt P08069); CK1δ (Homo sapiens, UniProt P48730); RIPK2 (Homo sapiens, UniProt O43353); HIPK1 (Homo sapiens, UniProt Q86Z02); MEKK1 (Homo sapiens, UniProt Q13233); PAK5 (Homo sapiens, UniProt Q9P286); ERK5 (Homo sapiens, UniProt Q13164); YES1 (Homo sapiens, UniProt P07947).
Holding throughout (test): Kinase panel residual activity
Assay type in all cases: biochemical
What all share (details): compound at 1 micromolar

A further series deals with T1, ERK8 (Homo sapiens, UniProt Q8TD08).
T1 sequence (Q8TD08 1-544): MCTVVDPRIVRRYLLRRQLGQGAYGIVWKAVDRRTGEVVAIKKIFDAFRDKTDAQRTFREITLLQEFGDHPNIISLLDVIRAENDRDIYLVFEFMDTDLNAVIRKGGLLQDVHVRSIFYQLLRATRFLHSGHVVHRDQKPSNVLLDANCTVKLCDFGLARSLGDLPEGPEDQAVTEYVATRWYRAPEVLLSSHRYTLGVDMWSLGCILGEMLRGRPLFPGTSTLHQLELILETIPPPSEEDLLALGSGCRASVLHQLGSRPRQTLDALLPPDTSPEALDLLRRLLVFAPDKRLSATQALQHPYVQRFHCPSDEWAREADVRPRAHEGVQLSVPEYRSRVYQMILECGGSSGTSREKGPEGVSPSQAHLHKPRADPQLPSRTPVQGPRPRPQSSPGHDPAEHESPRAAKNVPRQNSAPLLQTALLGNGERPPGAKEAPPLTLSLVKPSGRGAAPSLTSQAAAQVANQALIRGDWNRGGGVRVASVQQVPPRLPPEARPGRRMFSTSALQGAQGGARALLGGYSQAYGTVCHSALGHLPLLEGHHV

In a further series the target is T2, TTK (Homo sapiens, UniProt P33981).
T2 sequence (P33981 1-857): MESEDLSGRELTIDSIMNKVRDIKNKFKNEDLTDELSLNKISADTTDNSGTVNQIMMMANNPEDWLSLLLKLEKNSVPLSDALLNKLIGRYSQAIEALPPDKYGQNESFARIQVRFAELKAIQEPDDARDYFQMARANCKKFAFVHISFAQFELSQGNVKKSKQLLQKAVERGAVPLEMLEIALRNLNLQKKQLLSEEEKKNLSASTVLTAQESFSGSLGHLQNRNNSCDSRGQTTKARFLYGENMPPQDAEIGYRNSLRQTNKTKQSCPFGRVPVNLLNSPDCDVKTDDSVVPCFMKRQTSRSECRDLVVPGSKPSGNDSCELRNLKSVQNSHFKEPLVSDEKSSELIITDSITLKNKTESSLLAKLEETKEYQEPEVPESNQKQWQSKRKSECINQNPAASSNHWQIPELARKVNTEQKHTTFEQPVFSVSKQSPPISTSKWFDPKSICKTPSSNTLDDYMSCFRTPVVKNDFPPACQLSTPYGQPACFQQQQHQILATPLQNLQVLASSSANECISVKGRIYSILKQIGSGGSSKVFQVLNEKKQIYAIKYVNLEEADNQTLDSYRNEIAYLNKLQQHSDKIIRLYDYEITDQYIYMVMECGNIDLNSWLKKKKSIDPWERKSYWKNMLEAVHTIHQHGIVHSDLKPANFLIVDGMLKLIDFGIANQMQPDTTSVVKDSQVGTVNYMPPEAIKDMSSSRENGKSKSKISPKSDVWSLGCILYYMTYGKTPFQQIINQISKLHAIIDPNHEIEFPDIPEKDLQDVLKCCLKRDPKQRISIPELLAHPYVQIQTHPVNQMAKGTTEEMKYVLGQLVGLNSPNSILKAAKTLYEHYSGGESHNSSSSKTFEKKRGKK

The target in a further series is T3, EPH-B3 (Homo sapiens, UniProt P54753).
T3 sequence (P54753 34-998): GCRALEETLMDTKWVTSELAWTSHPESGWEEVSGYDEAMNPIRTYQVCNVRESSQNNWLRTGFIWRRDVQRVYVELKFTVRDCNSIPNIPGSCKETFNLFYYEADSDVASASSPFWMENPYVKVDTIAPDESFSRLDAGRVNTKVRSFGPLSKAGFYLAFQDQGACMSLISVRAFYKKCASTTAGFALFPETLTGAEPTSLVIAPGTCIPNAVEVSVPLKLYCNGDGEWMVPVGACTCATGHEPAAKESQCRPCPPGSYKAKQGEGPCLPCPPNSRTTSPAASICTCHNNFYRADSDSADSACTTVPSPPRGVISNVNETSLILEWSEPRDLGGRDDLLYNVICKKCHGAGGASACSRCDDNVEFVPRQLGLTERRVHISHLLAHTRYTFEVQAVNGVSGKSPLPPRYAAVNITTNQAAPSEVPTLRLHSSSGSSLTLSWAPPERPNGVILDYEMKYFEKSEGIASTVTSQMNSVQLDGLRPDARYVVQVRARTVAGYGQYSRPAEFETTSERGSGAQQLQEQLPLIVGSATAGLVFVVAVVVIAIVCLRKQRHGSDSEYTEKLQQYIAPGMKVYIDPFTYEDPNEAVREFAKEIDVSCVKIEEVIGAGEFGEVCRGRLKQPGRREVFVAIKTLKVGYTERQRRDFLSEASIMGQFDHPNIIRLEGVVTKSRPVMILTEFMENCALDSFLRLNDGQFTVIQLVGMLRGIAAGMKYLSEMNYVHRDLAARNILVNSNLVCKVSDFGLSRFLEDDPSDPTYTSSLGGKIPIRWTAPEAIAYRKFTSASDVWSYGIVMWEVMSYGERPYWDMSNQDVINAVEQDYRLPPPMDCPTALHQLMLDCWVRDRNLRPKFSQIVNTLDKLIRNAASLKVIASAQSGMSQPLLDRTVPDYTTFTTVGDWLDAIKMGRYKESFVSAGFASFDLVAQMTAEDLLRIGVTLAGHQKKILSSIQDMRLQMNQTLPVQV

Chain of MST4 (Q9P289 whole entry, species assumed): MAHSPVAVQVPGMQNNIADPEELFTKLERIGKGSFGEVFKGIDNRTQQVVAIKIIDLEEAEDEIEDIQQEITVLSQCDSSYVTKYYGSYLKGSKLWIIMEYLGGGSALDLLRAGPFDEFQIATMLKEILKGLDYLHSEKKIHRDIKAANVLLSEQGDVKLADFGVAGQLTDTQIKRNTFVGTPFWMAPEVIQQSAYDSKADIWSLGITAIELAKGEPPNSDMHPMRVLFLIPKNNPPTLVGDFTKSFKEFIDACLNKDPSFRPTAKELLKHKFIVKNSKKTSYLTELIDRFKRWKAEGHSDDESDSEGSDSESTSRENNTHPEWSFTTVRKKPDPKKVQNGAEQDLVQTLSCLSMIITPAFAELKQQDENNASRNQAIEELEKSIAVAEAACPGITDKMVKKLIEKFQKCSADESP
Chain of YES1 (P07947 whole entry, species assumed): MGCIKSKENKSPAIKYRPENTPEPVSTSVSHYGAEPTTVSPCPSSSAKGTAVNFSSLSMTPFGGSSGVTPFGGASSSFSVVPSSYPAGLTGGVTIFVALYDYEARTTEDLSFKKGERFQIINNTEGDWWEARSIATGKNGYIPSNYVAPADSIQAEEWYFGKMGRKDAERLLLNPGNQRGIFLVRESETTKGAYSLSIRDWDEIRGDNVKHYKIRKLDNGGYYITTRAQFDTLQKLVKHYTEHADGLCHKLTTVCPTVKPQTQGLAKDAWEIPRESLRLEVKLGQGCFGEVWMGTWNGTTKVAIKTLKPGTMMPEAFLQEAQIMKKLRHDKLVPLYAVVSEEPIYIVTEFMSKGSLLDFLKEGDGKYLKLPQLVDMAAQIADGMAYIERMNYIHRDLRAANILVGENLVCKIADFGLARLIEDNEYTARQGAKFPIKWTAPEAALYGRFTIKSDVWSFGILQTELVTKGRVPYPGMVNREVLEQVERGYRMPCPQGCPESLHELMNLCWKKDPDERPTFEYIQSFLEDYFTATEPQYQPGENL
Chain of ERK5 (Q13164 whole entry, species assumed): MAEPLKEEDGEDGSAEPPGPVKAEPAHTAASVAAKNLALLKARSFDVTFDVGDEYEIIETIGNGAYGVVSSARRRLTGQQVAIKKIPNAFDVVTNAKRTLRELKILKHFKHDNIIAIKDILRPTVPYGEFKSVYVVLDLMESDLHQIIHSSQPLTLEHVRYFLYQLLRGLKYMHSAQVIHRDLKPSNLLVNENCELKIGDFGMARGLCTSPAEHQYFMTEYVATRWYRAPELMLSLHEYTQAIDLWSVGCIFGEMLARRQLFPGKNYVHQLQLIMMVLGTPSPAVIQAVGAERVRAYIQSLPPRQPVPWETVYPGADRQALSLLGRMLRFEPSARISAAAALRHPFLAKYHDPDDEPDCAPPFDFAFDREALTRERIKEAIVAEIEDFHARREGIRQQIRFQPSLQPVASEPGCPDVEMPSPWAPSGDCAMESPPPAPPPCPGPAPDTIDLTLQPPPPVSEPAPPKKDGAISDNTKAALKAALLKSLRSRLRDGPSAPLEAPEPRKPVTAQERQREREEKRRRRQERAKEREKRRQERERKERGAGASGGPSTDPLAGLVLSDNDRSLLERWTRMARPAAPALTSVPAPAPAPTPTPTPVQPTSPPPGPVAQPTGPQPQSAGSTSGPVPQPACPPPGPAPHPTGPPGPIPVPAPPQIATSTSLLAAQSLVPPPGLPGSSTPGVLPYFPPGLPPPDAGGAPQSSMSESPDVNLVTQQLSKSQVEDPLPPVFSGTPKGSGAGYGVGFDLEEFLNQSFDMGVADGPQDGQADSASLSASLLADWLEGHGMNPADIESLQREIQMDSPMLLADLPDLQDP
Chain of RIPK2 (O43353 whole entry, species assumed): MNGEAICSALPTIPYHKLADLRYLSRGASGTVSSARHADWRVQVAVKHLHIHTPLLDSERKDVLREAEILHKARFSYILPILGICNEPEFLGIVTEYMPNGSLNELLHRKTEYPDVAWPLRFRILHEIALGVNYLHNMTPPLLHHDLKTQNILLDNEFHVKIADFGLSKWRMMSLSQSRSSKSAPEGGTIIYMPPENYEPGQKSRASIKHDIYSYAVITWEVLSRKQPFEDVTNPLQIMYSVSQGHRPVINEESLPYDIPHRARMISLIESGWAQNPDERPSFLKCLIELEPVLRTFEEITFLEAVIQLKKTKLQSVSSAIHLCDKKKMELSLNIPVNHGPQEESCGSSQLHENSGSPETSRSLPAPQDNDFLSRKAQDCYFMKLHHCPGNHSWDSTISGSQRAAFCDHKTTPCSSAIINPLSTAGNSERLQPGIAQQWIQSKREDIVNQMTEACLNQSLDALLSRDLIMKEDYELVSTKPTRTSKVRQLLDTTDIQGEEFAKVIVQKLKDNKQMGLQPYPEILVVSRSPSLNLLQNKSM
Chain of PAK5 (Q9P286 whole entry): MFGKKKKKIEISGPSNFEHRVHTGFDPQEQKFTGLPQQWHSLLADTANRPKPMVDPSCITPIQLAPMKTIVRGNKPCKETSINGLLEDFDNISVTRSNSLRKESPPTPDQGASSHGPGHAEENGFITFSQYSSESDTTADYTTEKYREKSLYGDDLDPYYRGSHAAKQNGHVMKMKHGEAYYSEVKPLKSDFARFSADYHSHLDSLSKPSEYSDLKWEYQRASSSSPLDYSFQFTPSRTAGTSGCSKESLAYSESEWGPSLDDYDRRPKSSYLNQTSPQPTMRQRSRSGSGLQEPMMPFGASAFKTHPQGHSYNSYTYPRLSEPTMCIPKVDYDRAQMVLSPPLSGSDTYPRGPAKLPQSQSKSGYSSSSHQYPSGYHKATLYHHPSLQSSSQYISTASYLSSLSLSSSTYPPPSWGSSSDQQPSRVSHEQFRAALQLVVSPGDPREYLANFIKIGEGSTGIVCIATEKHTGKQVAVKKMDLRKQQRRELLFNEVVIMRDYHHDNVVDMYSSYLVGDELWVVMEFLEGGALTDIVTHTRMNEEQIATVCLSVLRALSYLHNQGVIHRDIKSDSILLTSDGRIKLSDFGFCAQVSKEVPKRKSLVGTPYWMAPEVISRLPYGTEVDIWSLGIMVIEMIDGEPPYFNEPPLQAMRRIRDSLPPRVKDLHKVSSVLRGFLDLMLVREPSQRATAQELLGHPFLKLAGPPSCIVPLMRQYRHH
Chain of MEKK1 (Q13233 whole entry, species assumed): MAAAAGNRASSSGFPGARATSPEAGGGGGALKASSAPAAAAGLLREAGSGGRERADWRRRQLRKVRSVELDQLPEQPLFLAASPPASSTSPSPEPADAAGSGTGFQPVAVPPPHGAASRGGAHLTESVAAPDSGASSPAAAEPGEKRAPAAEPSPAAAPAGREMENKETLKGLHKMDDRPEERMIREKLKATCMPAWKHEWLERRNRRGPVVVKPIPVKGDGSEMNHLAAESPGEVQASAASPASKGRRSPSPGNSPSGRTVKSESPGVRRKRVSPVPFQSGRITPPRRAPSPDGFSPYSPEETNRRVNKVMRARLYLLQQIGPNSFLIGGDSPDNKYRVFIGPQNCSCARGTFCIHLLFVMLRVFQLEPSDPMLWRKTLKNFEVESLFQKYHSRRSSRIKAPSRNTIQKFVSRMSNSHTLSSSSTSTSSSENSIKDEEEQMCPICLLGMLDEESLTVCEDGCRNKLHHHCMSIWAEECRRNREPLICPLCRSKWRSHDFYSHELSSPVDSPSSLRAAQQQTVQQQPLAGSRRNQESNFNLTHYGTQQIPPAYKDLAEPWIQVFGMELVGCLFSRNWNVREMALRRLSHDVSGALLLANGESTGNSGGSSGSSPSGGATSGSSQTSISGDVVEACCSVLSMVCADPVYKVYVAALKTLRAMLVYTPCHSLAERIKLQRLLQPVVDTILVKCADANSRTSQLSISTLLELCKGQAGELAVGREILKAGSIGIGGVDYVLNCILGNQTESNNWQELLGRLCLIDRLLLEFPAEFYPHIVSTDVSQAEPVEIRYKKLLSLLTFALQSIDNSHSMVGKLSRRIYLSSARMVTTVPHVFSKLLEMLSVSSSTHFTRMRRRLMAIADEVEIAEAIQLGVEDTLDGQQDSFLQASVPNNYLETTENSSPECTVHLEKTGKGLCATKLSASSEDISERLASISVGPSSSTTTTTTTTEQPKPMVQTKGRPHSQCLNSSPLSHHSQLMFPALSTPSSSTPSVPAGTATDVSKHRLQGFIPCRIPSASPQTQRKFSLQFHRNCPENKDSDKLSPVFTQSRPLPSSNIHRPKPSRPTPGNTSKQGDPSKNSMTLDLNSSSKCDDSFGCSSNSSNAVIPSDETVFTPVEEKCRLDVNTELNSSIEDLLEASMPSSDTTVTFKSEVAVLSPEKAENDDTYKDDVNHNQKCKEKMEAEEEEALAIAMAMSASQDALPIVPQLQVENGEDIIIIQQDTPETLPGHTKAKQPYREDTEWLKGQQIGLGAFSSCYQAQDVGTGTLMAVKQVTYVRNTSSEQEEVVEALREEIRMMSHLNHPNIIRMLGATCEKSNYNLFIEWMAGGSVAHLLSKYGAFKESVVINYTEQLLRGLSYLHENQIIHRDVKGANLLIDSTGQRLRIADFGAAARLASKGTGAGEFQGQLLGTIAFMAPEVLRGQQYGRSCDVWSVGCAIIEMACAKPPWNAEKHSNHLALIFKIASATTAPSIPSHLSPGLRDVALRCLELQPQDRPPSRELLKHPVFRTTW
Chain of CK1δ (P48730 whole entry): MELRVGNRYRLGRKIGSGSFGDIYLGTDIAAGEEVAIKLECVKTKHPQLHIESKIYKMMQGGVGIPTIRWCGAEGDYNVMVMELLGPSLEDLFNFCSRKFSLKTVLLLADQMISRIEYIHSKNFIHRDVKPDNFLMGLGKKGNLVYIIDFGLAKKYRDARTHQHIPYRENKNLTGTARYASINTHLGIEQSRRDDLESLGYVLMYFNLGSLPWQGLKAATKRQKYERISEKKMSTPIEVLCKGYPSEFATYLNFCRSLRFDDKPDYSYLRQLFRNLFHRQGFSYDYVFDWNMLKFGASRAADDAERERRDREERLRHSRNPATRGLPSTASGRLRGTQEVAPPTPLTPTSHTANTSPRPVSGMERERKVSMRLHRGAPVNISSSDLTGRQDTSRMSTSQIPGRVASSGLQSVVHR

Regarding `NCCCC[C@H](NC(=O)[C@H](CC(=O)O)NC(=O)[C@H](CC(=O)O)NC(=O)[C@H](CC(=O)O)NC(=O)[C@H](CC(=O)O)NC(=O)[C@H](CC(=O)O)NC(=O)[C@@H](CC(=O)O)NC(=O)CCCCCCCn1cnc2c(Br)c(Br)c(Br)c(Br)c21)C(=O)O` [TBBI-OcA-(D-Asp)-(L-Asp)5-(L-Lys)-OH] (X1-[dD]DDDDDK-OH), the remaining activity – broadly, the signal under treatment as a percentage of the control signal – at 1 µM in the series with ROCK 2 amounted to 91%; with MST4, 114%; with ERK8, 25%; in the series with IGF-1R, 116%; with CK1δ it was 49%; with TTK, 52%. Besides, the remaining activity at 1 µM with RIPK2 came to 120%; with HIPK1, 68%; in the series with EPH-B3, 98%; with MEKK1 it was 95%; with PAK5, 81%; in the series with ERK5, 98%. Further, the remaining activity at 1 µM with YES1 is 103%.
